Where two headings read alike, the source gives them in different places. *1 amine or outer side, *2 acyl side, *3 side chain or, on linkers, in order; H or OH if unused. Where a SMILES comes first, the peptide text is derived from it. [ ]: non-standard residue; d: D form. The star is where a group is joined. X2 = CO[C@@H]([C@H]1CCCN1[*:1])[C@@H](C)C(=O)[*:2]; Propanoyl(3-maleimido) = O=C1C=CC(=O)N1CCC(=O)*; Dil = CC[C@H](C)[C@H](NC)[C@@H](CC(=O)O)OC; X1 = O=C(CN1CCOCCN([*:1])CCOCC1)[*:2]; PABC = O=C(OCc1ccc(N[*:1])cc1)[*:2]; X3 = C[C@@H](N*)[C@@H](O)c1ccccc1; NMeV = CN[C@H](C(=O)O)C(C)C
Tests used:
[1] = Naked antibody content of antibody-drug conjugates by hydrophobic interaction chromatography (HIC); type: physicochemical; details: ADC with Her2 antibody
[2] = type: physicochemical; details: ADC with Her2 antibody, RP-HPLC-MS
In short: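 ADC at 1 mg/ml reduced with 50 mmol/L DTT in Tris pH 8.0 for 30 min at 37 °C, then light and heavy chains separated by RP-HPLC on a PLRP-S column at 70 °C. Deconvoluted masses assigned drug load per peak; weighted average DAR calculated from UV peak area percentages.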

[3] = Stability (placement) test of ADCs at 40° C. in dark for 14 days, DAR and polymer content; type: physicochemical
Procedure: Polymers (high molecular components) of the antibody-drug conjugates were tested using molecular exclusion high-performance liquid chromatography (SE-HPLC). A Biocore SEC chromatographic column (7.8×300 mm, […]) was used, and the mobile phase was 50 mM phosphate containing 300 mM sodium chloride (pH 6.8), with a flow rate of 0.5 mL/min. Samples of […] and 10 μl were injected. […] The polymer content of an antibody-drug conjugate was calculated using an area normalization method.
A drug-antibody conjugating ratio (also known as drug-antibody ratio, abbreviated as DAR) of the antibody-drug conjugate was tested using reversed-phase high-performance liquid chromatography-mass chromatography (RP-HPLC-MS). The ADC sample was diluted with 50 mmol/L Tris buffer (pH 8.0) to 1 mg/ml. A fresh dithiothreitol (DTT) stock solution was added to achieve a final DTT concentration of 50 mmol/L. Incubation was performed at 37° C. for 30 minutes. A PLRP-S chromatographic column (1000 Å pores, 2.1×50 mm, 5) μm) was used, and the column temperature was 70° C. The flow rate was 0.25 mL/min. […] of sample was injected; the mobile phase A was an aqueous solution of 0.1% formic acid (V/V) and 0.025% trifluoroacetic acid (V/V), and the mobile phase B was an acetonitrile solution of 0.1% formic acid (V/V) and 0.025% trifluoroacetic acid (V/V); the running time was 0-3 minutes, where 27% of mobile phase B ran for 3 minutes, and the mobile phase B ran from 27% to 49% within 3-25 minutes, from 49% to 95% within 25-26 minutes, at 95% within […], from 95% to 27% within 30-31.5 minutes, and at 27% for 31.5-45 minutes. […] Mass spectrometry drying gas was at a temperature of 350° C. and a flow rate of 7.0 L/min, the pressure of an atomizer was 40 psi, capillary voltage was positive 3000V and negative 3000V, and the mass range was 500-1600 m/z. The molecular weight of each mass spectrometry peak (ranging from 20000 to 70000) was calculated by deconvolution and compared with light and heavy chain molecular weights of un-conjugated antibodies to calculate a drug load at each peak, so as to determine the load of a corresponding ultraviolet peak. Area percentages of heavy and light chain ultraviolet peaks were calculated through integration, and a weighted average DAR of the antibody-drug conjugate was calculated by combining the area percentages with the drug load distribution of each peak.
Stability testing method: The stability of the obtained ADCs was tested for 14 days. The ADCs were placed at 40° C. in dark. Sampling points were days 0, 7, and 14. The polymer content and DAR value of samples at different sampling points were tested according to the method in Experimental Example 1.

gastric cancer NCI-N87 = assay: In vivo anti-tumor effect, gastric cancer NCI-N87 tumor model; parameters: species or system mouse; details: NCI-N87 subcutaneous model, FIG. 10, FIG. 11
Procedure: Tumor cells (ovarian cancer SKOV-3, gastric cancer NCI-N87, and breast cancer JIMT-1) were cultured in a medium and maintained in a 37° C. saturated humidity incubator containing 5% CO2, respectively.
Tumor cells in a logarithmic growth phase were collected and re-suspended in a basic medium, and the concentration of cells was adjusted to 4×10^7/mL. Under sterile conditions, 0.1 mL of cell suspension was inoculated subcutaneously into the right armpit of a mouse at a concentration of 4×10^6 Cells/0.1 mL/mouse.
When the tumor volume reached around 200 mm^3, animals were randomly grouped according to the tumor volume, where the difference in tumor volume between the groups was less than 10% of the mean. The grouping day was recorded as Day 0, and administration started according to the body weight of the animals. In the administration period, if the body weight of individual animals decreased by more than 15% compared to that on Day 0 (BWL≥15%), the administration was stopped until the body weight of the animals recovered (BWL<15%), and then the administration recovered.
During the experiment, the body weight of the animals and the tumor volume were measured 2 times a week, and clinical symptoms of the animals were observed and recorded every day.

[4] = Polymer (high molecular component) content of antibody-drug conjugates by SE-HPLC; type: physicochemical; details: ADC with Her2 antibody
In short: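 SE-HPLC on 7.8×300 mm SEC column with 50 mM phosphate, 300 mM NaCl (pH 6.8) mobile phase at 0.5 mL/min; high-molecular-weight content determined by area normalization.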

| Compound | Naked antibody content (%) [1] [%] | DAR [2] | DAR ([3]; Day 0, 40° C. in dark) | Polymer content (%) ([3]; Day 0, 40° C. in dark) | DAR ([3]; Day 7, 40° C. in dark) | Polymer content (%) ([3]; Day 7, 40° C. in dark) | DAR ([3]; Day 14, 40° C. in dark) | Polymer content (%) ([3]; Day 14, 40° C. in dark) | in vivo anti-tumor effect on gastric cancer (gastric cancer NCI-N87) | Polymer content (%) [4] [%] |
| --- | --- | --- | --- | --- | --- | --- | --- | --- | --- | --- |
| C=C1C[C@@H]2CC[C@@]34C[C@H]5OC6C(O[C@H]7CC[C@H](CC(=O)C[C@@H]8[C@@H](OC)[C@@H](C[C@H](O)CNC(=O)CNC(=O)[C@H](Cc9ccccc9)NC(=O)CNC(=O)CN9CCOCCOCCN(C(=O)CCCCCN%10C(=O)C=CC%10=O)CCOCCOCC9)O[C@H]8C[C@H]8O[C@@H](CC[C@@H]1O2)C[C@@H](C)C8=C)O[C@@H]7[C@@H]6O3)[C@H]5O4 [Example 40] | 4.27 | 3.78 | 3.78 | 1.29 | 3.75 | 1.31 | 3.74 | 1.41 | significantly better | 1.29 |
| CC[C@H](C)[C@@H]([C@@H](CC(=O)N1CCC[C@@H]1[C@H](OC)[C@@H](C)C(=O)N[C@H](C)[C@@H](O)c1ccccc1)OC)N(C)C(=O)[C@@H](NC(=O)[C@H](C(C)C)N(C)C(=O)OCc1ccc(NC(=O)CNC(=O)[C@H](Cc2ccccc2)NC(=O)CNC(=O)CN2CCOCCN(C(=O)CCN3C(=O)C=CC3=O)CCOCC2)cc1)C(C)C [Example 86] ({Propanoyl(3-maleimido)}-[X1]GFG[PABC][NMeV]V[Dil][X2]-X3) | 3.45 | 4.20 | 4.20 | 0.97 | 4.23 | 0.99 | 4.16 | 1.11 |  | 0.97 |
| C=C1C[C@@H]2CC[C@@]34C[C@H]5OC6C(O[C@H]7CC[C@H](CC(=O)C[C@@H]8[C@@H](OC)[C@@H](C[C@H](O)CNC(=O)OCc9ccc(NC(=O)[C@H](CCCNC(N)=O)NC(=O)[C@@H](NC(=O)CN%10CCOCCN(C(=O)CCN%11C(=O)C=CC%11=O)CCOCC%10)C(C)C)cc9)O[C@H]8C[C@H]8O[C@@H](CC[C@@H]1O2)C[C@@H](C)C8=C)O[C@@H]7[C@@H]6O3)[C@H]5O4 [Example 87] | 2.11 | 3.85 | 3.85 | 1.12 | 3.87 | 1.15 | 3.81 | 1.24 |  | 1.12 |

From patent publication US20240293570A1 (priority 2021, published 2024)
